The record followed here is the supplement of paper PMC10567573.

B1: WEE1 (parent)
chain: FLGSSFSPVRCGGPGDASPRGCGA
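Further: lentivirally expressed fusions sorted by FACS into six bins by GFP to DsRed ratio, PSI derived from sequencing read proportions per bin multiplied by bin number.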

This data set covers variants of B1. Description: protein stability index of a GFP-peptide fusion (GPS, HEK-293T) (PSI 1-6); higher = more stable. The conditions noted are these: c terminus: a fixed tail appended.
Consider FLGSYFSPVRCGGPGDASPRGCGA [S5Y], for which the protein stability index came out at 2.51.
For FLGSIFSPVRCGGPGDASPRGCGA [S5I], the protein stability index was 1.92.
As for FLGSGFSPVRCGGPGDASPRGCGA [S5G], the figure is 1.91.
As to FLGSNFSPVRCGGPGDASPRGCGA [S5N], the protein stability index came to 1.92.
The same measure for FLGSAFSPVRCGGPGDASPRGCGA [S5A]: 1.98; for FLGSPFSPVRCGGPGDASPRGCGA [S5P]: 2.17.
As for FLGSEFSPVRCGGPGDASPRGCGA [S5E], the figure is 1.52; as for FLGSFFSPVRCGGPGDASPRGCGA [S5F], 4.63.
On to FLGSKFSPVRCGGPGDASPRGCGA [S5K], for which the protein stability index was 1.8.
Regarding FLGSMFSPVRCGGPGDASPRGCGA [S5M], the protein stability index was 2.27.
The same measure for FLGSSFSDVRCGGPGDASPRGCGA [P8D]: 1.97; for FLGSSFSKVRCGGPGDASPRGCGA [P8K]: 1.66; for FLGSSFSGVRCGGPGDASPRGCGA [P8G]: 1.81.
The same measure for FLGSSFSMVRCGGPGDASPRGCGA [P8M]: 1.85; for FLGSSFSQVRCGGPGDASPRGCGA [P8Q]: 1.64; for FLGSSFSAVRCGGPGDASPRGCGA [P8A]: 1.38.
On to FLGSSFSNVRCGGPGDASPRGCGA [P8N], for which the protein stability index is 2.05.
As for FLGSSFSPVRCGGPGDASPRGCGN [A24N], the figure is 2.28; as for FLGSSFSPVRCGGPGDASPRGCGP [A24P], 1.58.
The same measure for FLGSSFSPVRCGGPGDASPRGCGD [A24D]: 2.27; for FLGSSFSPVRCGGPGDASPRGCGC [A24C]: 2.6.
As for FLGSSFSPVRCGGPGDASPRGCGV [A24V], the figure is 1.6; as for FLGSSFSPVRCGGPGDASPRGCGR [A24R], 1.98.
With FLGSSFSPVRCGGPGDASPRGCGF [A24F], the protein stability index came out at 2.42.
The same measure for FLGSSFSPVRCGGPGDASPRGCGW [A24W]: 1.37; for FLGSSFSPVRCGGPGDASPRRCGA [G21R]: 1.96.
Regarding FLGSSFSPVRCGGPGDASPRLCGA [G21L], the protein stability index was found to be 1.95.
For FLGSSFSPVRCGGPGDASPRYCGA [G21Y], the protein stability index amounted to 1.69.
For the variant FLGSSFSPVRCGGPGDASPRWCGA [G21W], the protein stability index was 1.38.
As for FLGSSFSPVRCGGPGDASPRVCGA [G21V], the protein stability index is 1.74.
As for FLGSSFSPVRCGGPGDASPRHCGA [G21H], the figure is 1.87; as for FLGSSFSPVRCGGPGDASPRICGA [G21I], 1.97.
The same measure for FLGSSFSPVRCGGPGDASWRGCGA [P19W]: 2.52; for FLGSSFSPVRCGGPGDASNRGCGA [P19N]: 2.45; for FLGSSFSPVRCGGPGDASGRGCGA [P19G]: 2.
For the variant FLGSSFSPVRCGGPGDASLRGCGA [P19L], the protein stability index was 2.31.
As for FLGSSFSPVRCGGPGDASSRGCGA [P19S], the protein stability index is 1.8.
The same measure for FLGSSFSPVRCGGPGDASQRGCGA [P19Q]: 1.57.
The same measure for FLGSSFSPVRCGGPGDASARGCGA [P19A]: 2.78.
As for FLGSSFSPVRCGGPIDASPRGCGA [G15I], the protein stability index was found to be 1.82.
As for FLGSSFSPVRCGGPDDASPRGCGA [G15D], the protein stability index was 2.06.
For the variant FLGSSFSPVRCGGPTDASPRGCGA [G15T], the protein stability index came to 2.25.
As to FLGSSFSPVRCGGPFDASPRGCGA [G15F], the protein stability index amounted to 2.6.
Take FLGSSFSPVRCGGPKDASPRGCGA [G15K]: the protein stability index came to 1.93.
The same measure for FLGSSFSPVRCGGPADASPRGCGA [G15A]: 2.45; for FLGSSKSPVRCGGPGDASPRGCGA [F6K]: 3.
As for FLGSSCSPVRCGGPGDASPRGCGA [F6C], the figure is 3.15.
Turning to FLGSSASPVRCGGPGDASPRGCGA [F6A], the protein stability index worked out at 2.17.
The same measure for FLGSSDSPVRCGGPGDASPRGCGA [F6D]: 3.42; for FLGSSNSPVRCGGPGDASPRGCGA [F6N]: 3.06.
For the variant FLGSSGSPVRCGGPGDASPRGCGA [F6G], the protein stability index is 3.36.
As to FLGSSYSPVRCGGPGDASPRGCGA [F6Y], the protein stability index worked out at 1.81.
FLGSSTSPVRCGGPGDASPRGCGA [F6T]: the protein stability index was 2.76.
The same measure for FLCSSFSPVRCGGPGDASPRGCGA [G3C]: 1.91; for FLVSSFSPVRCGGPGDASPRGCGA [G3V]: 2.51; for FLISSFSPVRCGGPGDASPRGCGA [G3I]: 2.82.
Turning to FLPSSFSPVRCGGPGDASPRGCGA [G3P], the protein stability index is 2.12.
Regarding FLDSSFSPVRCGGPGDASPRGCGA [G3D], the protein stability index was 2.02.
The same measure for FLMSSFSPVRCGGPGDASPRGCGA [G3M]: 1.68; for FLWSSFSPVRCGGPGDASPRGCGA [G3W]: 2.79; for FLTSSFSPVRCGGPGDASPRGCGA [G3T]: 1.48.
As for FLGSSFSPVRCGGPGDASPRGCPA [G23P], the figure is 2.06.
As for FLGSSFSPVRCGGPGDASPRGCYA [G23Y], the figure is 1.4.
Regarding FLGSSFSPVRCGGPGDASPRGCHA [G23H], the protein stability index worked out at 3.02.
As for FLGSSFSPVRCGGPGDATPRGCGA [S18T], the figure is 1.42; as for FLGSSFSPVRCGGPGDAWPRGCGA [S18W], 2.3.
The same measure for FLGSSFSPVRCGGPGDAGPRGCGA [S18G]: 1.98.
As for FLGSSFSPVRCGGPGDAIPRGCGA [S18I], the protein stability index is 1.75.
For FLGSSFSPVRCGGPGDAYPRGCGA [S18Y], the protein stability index came to 1.65.
Regarding FLGSSFSPVRCGGPGDAVPRGCGA [S18V], the protein stability index was 2.09.
The same measure for FLGSSFSPVRCGGPGDAHPRGCGA [S18H]: 1.83.
The same measure for FLGDSFSPVRCGGPGDASPRGCGA [S4D]: 2.39; for FLGISFSPVRCGGPGDASPRGCGA [S4I]: 2.49.
Regarding FLGVSFSPVRCGGPGDASPRGCGA [S4V], the protein stability index worked out at 1.46.
Take FLGMSFSPVRCGGPGDASPRGCGA [S4M]: the protein stability index stood at 2.06.
The same measure for FLGGSFSPVRCGGPGDASPRGCGA [S4G]: 2.16; for FLGSSFSPVRCGGPGWASPRGCGA [D16W]: 1.74.
The same measure for FLGSSFSPVRCGGPGGASPRGCGA [D16G]: 1.99; for FLGSSFSPVRCGGPGHASPRGCGA [D16H]: 2.27; for FLGSSFSPVRCGGPGNASPRGCGA [D16N]: 1.39.
As for FLGSSFSPVRCGGPGVASPRGCGA [D16V], the figure is 1.91; as for FLGSSFSPVRCGGPGEASPRGCGA [D16E], 1.93; as for FLGSSFSPVRCGGPGLASPRGCGA [D16L], 1.88.
In the case of FLGSSFSPVRCGGPGDASPNGCGA [R20N], the protein stability index turned out to be 2.
As for FLGSSFSPVRCGGPGDASPWGCGA [R20W], the figure is 2.19.
As for FLGSSFSPVRCGGPGDASPSGCGA [R20S], the figure is 1.55; as for FLGSSFSPVRCGGPGDASPLGCGA [R20L], 2.37; as for FLGSSFSPVRCGGPGDASPKGCGA [R20K], 1.62.
As for FLGSSFSPVRCGGPGDASPVGCGA [R20V], the figure is 1.79; as for FLGSSFSPVRCGGPGDASPDGCGA [R20D], 2.17; as for PLGSSFSPVRCGGPGDASPRGCGA [F1P], 3.4.
In the case of VLGSSFSPVRCGGPGDASPRGCGA [F1V], the protein stability index turned out to be 3.77.
For the variant GLGSSFSPVRCGGPGDASPRGCGA [F1G], the protein stability index is 3.25.
Regarding WLGSSFSPVRCGGPGDASPRGCGA [F1W], the protein stability index worked out at 2.16.
